Substitutions are numbered along the chain they refer to. Where “and” joins values, the source holds several entries; their conditions need not be identical. Identical values can stand only once.
B1: 72T 73Q 74A (protein, listed as Rattus norvegicus)
chain: AFDGTWKVDRNENYEKFMEKMGINVVKRKLGAHDNLKLTITQEGNKFTVKESSNFRNIDVVFELGVDFAYSTQAGTELTGTWTMEGNKLVGKFKRVDNGKELIAVREISGNELIQTYTYEGVEAKRIFKKE
modifications: PEPTIDE (1)...(131) wild-type rat intestinal fatty acid binding protein
B2: 18I 31Y 73V 72A (protein, listed as Rattus norvegicus)
chain: B1 chain with M18I, G31Y, T72A, Q73V, A74D
modifications: PEPTIDE (1)...(131) wild-type rat intestinal fatty acid binding protein
B3: 72A 73P 74V (protein, listed as Rattus norvegicus)
chain: B1 chain with T72A, Q73P, A74V
modifications: PEPTIDE (1)...(131) wild-type rat intestinal fatty acid binding protein
B4: 18I 31I 55M 73V 72A (protein, listed as Rattus norvegicus)
chain: B1 chain with M18I, G31I, F55M, T72A, Q73V, A74D
modifications: PEPTIDE (1)...(131) wild-type rat intestinal fatty acid binding protein
B5: 14Q 18L 31A 73W 117V 72A (protein, listed as Rattus norvegicus)
chain: B1 chain with Y14Q, M18L, G31A, T72A, Q73W, A74D, Y117V
modifications: PEPTIDE (1)...(131) wild-type rat intestinal fatty acid binding protein
B6: 72A 73W 74V (protein, listed as Rattus norvegicus)
chain: B1 chain with T72A, Q73W, A74V
modifications: PEPTIDE (1)...(131) wild-type rat intestinal fatty acid binding protein
B7: 72T 73V 74S (protein, listed as Rattus norvegicus)
chain: B1 chain with Q73V, A74S
modifications: PEPTIDE (1)...(131) wild-type rat intestinal fatty acid binding protein
B8: 72T 73V 74A (protein, listed as Rattus norvegicus)
chain: B1 chain with Q73V
modifications: PEPTIDE (1)...(131) wild-type rat intestinal fatty acid binding protein
B9: 72T 73V 74N (protein, listed as Rattus norvegicus)
chain: B1 chain with Q73V, A74N
modifications: PEPTIDE (1)...(131) wild-type rat intestinal fatty acid binding protein
B10: 72G 73F 74E (protein, listed as Rattus norvegicus)
chain: B1 chain with T72G, Q73F, A74E
modifications: PEPTIDE (1)...(131) wild-type rat intestinal fatty acid binding protein
B11: 18I 31A 73F 72A (protein, listed as Rattus norvegicus)
chain: B1 chain with M18I, G31A, T72A, Q73F, A74D
modifications: PEPTIDE (1)...(131) wild-type rat intestinal fatty acid binding protein
B12: 18V 31A 73F 72A (protein, listed as Rattus norvegicus)
chain: B1 chain with M18V, G31A, T72A, Q73F, A74D
modifications: PEPTIDE (1)...(131) wild-type rat intestinal fatty acid binding protein
B13: 18I 31V 73G 72A (protein, listed as Rattus norvegicus)
chain: B1 chain with M18I, G31V, T72A, Q73G, A74D
modifications: PEPTIDE (1)...(131) wild-type rat intestinal fatty acid binding protein
B14: 72S 73M 74A (protein, listed as Rattus norvegicus)
chain: B1 chain with T72S, Q73M
modifications: PEPTIDE (1)...(131) wild-type rat intestinal fatty acid binding protein
B15: 72V 73W 74S (protein, listed as Rattus norvegicus)
chain: B1 chain with T72V, Q73W, A74S
modifications: PEPTIDE (1)...(131) wild-type rat intestinal fatty acid binding protein
B16: 72A 73W 74A (protein, listed as Rattus norvegicus)
chain: B1 chain with T72A, Q73W
modifications: PEPTIDE (1)...(131) wild-type rat intestinal fatty acid binding protein
B17: 72V 73W 74N (protein, listed as Rattus norvegicus)
chain: B1 chain with T72V, Q73W, A74N
modifications: PEPTIDE (1)...(131) wild-type rat intestinal fatty acid binding protein
B18: 21Y 78I 102I 72A (protein, listed as Rattus norvegicus)
chain: B1 chain with M21Y, T72A, Q73A, A74D, L78I, L102I
modifications: PEPTIDE (1)...(131) wild-type rat intestinal fatty acid binding protein
B19: 18V 31A 73W 72A (protein, listed as Rattus norvegicus)
chain: B1 chain with M18V, G31A, T72A, Q73W, A74D
modifications: PEPTIDE (1)...(131) wild-type rat intestinal fatty acid binding protein

experiment: Probe fluorescence ratio response to arachidonic acid relative to ADIFAB2; assay type: binding; details: arachidonic acid; response relative to ADIFAB2
Summary of the method: (§1)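 Each fatty acid's response was expressed relative to ADIFAB2, the rI-FABP-L72A probe, as ΔR/ΔRreference. ΔR is the change in the background-corrected two-wavelength intensity ratio R=Fλ1/Fλ2 from its analyte-free baseline R0. Emission was read near about 420-480 nm for unbound and about 495-580 nm for FFA-bound probe.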

Row | Molecule | DR/DR AA
1 | B1 | 2.392
2 | B2 | 1.801
3 | B3 | 2.354
4 | B4 | 1.710
5 | B5 | 1.558
6 | B6 | 1.768
7 | B7 | 2.540
8 | B8 | 2.180
9 | B9 | 2.484
10 | B10 | 0.910
11 | B11 | 1.314 and 1.296
12 | B12 | 1.142
13 | B13 | 1.348
14 | B14 | 2.759
15 | B15 | 1.424
16 | B16 | 0.892
17 | B17 | 1.191
18 | B18 | 3.536
19 | B19 | 1.761

experiment: Probe fluorescence ratio response to linoleic acid relative to ADIFAB2; assay type: binding; details: response relative to ADIFAB2
Summary of the method: as §1

Row | Molecule | DR/DR LA
20 | B1 | 3.163
21 | B2 | 2.242
22 | B3 | 2.735
23 | B4 | 1.981
24 | B5 | 1.942
25 | B6 | 2.338
26 | B7 | 2.611
27 | B8 | 2.435
28 | B9 | 2.407
29 | B10 | 1.467
30 | B11 | 1.732 and 1.652
31 | B12 | 1.527
32 | B13 | 1.715
33 | B14 | 2.470
34 | B15 | 1.819
35 | B16 | 1.466
36 | B17 | 1.726
37 | B18 | 2.879
38 | B19 | 2.540

experiment: Probe fluorescence ratio response to palmitic acid relative to ADIFAB2; assay type: binding; details: response relative to ADIFAB2
Summary of the method: as §1

Row | Molecule | DR/DR PA
39 | B1 | 3.473
40 | B2 | 1.615
41 | B3 | 2.406
42 | B4 | 1.883
43 | B5 | 1.084
44 | B6 | 2.525
45 | B7 | 2.629
46 | B8 | 2.362
47 | B9 | 2.250
48 | B10 | 0.981
49 | B11 | 1.515 and 1.372
50 | B12 | 1.510
51 | B13 | 1.630
52 | B14 | 2.524
53 | B15 | 1.789
54 | B16 | 1.942
55 | B17 | 2.229
56 | B18 | 1.870
57 | B19 | 2.218

experiment: Probe fluorescence ratio response to linolenic acid relative to ADIFAB2; assay type: binding; details: response relative to ADIFAB2
Summary of the method: as §1

Row | Molecule | DR/DR LNA
58 | B1 | 2.850
59 | B2 | 2.176
60 | B3 | 2.845
61 | B4 | 2.408
62 | B5 | 1.958
63 | B6 | 2.752
64 | B7 | 2.579
65 | B8 | 2.597
66 | B9 | 2.362
67 | B10 | 2.415
68 | B11 | 2.318 and 2.203
69 | B12 | 2.036
70 | B13 | 1.946
71 | B14 | 2.567
72 | B15 | 2.044
73 | B16 | 2.093
74 | B17 | 2.384
75 | B18 | 2.454
76 | B19 | 2.770

experiment: Probe fluorescence ratio response to palmitoleic acid relative to ADIFAB2; assay type: binding; details: response relative to ADIFAB2
Summary of the method: as §1

Row | Molecule | DR/DR POA
77 | B1 | 3.632
78 | B2 | 2.088
79 | B3 | 3.613
80 | B4 | 2.478
81 | B5 | 2.008
82 | B6 | 3.856
83 | B7 | 2.909
84 | B8 | 3.011
85 | B9 | 2.816
86 | B10 | 2.519
87 | B11 | 2.730 and 2.522
88 | B12 | 2.677
89 | B13 | 2.122
90 | B14 | 2.854
91 | B15 | 2.662
92 | B16 | 3.016
93 | B17 | 3.507
94 | B18 | 2.089
95 | B19 | 3.184

experiment: Probe fluorescence ratio response to stearic acid relative to ADIFAB2; assay type: binding; details: response relative to ADIFAB2
Summary of the method: as §1

Row | Molecule | DR/DR SA
96 | B1 | 2.318
97 | B2 | 1.047
98 | B3 | 1.178
99 | B4 | 0.502
100 | B5 | 0.384
101 | B6 | 0.602
102 | B7 | 2.195
103 | B8 | 1.146
104 | B9 | 1.942
105 | B10 | 0.239
106 | B11 | 0.404 and 0.406
107 | B12 | 0.375
108 | B13 | 0.543
109 | B14 | 1.776
110 | B15 | 0.574
111 | B16 | 0.330
112 | B17 | 0.468
113 | B18 | 2.774
114 | B19 | 0.722

experiment: Probe fluorescence ratio response to oleic acid relative to ADIFAB2; assay type: binding; details: response relative to ADIFAB2
Summary of the method: as §1

Row | Molecule | DR/DR OA
115 | B1 | 3.136
116 | B2 | 1.818
117 | B3 | 2.187
118 | B4 | 1.188
119 | B5 | 1.478
120 | B6 | 1.574
121 | B7 | 2.670
122 | B8 | 1.950
123 | B9 | 2.491
124 | B10 | 0.585
125 | B11 | 0.950 and 0.995
126 | B12 | 0.828
127 | B13 | 0.968
128 | B14 | 2.443
129 | B15 | 1.477
130 | B16 | 0.933
131 | B17 | 1.146
132 | B18 | 3.424
133 | B19 | 1.738

Reference: US20060257938A1, “Method of screening for drugs that block ligand binding to a lipid binding protein” (priority 2005, published 2006)
